Source: publication PMC8041466

How the values were obtained:
[1] = molecular target: Cytotect (HCMV-IgG hyperimmunoglobulin preparation, human plasma pool, polyclonal IgG) (human); experiment: flow cytometry on cells; same set-up; pairs of the vFcγR on infected cells with Cytotect IgG
[2] = molecular target: Rituximab (humanized anti-hCD20 IgG1) (human); experiment: flow cytometry on cells; same set-up; pairs of the CD4-tailed vFcγR on the cells with Rtx
Chain of Rituximab (humanized anti-hCD20 IgG1) (human) (heavy, as listed by the source, chain 1 of 2): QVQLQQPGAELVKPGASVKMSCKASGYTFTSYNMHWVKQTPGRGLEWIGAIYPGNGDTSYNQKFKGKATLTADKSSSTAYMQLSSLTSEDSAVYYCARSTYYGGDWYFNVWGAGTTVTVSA
Chain of Rituximab (humanized anti-hCD20 IgG1) (human) (light, as listed by the source, chain 2 of 2): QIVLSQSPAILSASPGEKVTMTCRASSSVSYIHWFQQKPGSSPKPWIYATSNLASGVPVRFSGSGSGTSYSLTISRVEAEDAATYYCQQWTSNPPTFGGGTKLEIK

Substance	percent reduction of FcγRIII binding [1] [%]	percent reduction of FcγRIII binding [2] [%]
gp68 natively expressed on HCMV AD169/pBAC2 mutant-infected MRC-5 cells (from UniProt P16739 24-345) (natural protein)	60	
gp68-CD4 (gp68 with the transmembrane and cytosolic domains of human CD4)		60
